In US20220305003A1, “METHODS OF TREATING CANCER WITH AN INHIBITOR OF ZNF827” (CHILDREN'S MEDICAL RESEARCH INSTITUTE, priority 2019, published 2022):

Tests used:
[1] = target: T1, ZNF827 SUMOylation mutant (Homo sapiens, UniProt Q17R98 SEQ:4-1079); assay: EMSA; positive control; 0.8 mM ZnCl2, 100 mM KCl, poly(dI:dC), on ice; conditions: tags: HaloTag (pHTN), expressed in HEK 293T, tag removed by HaloTEV cleavage; label: 32P (gamma)
T1 chain: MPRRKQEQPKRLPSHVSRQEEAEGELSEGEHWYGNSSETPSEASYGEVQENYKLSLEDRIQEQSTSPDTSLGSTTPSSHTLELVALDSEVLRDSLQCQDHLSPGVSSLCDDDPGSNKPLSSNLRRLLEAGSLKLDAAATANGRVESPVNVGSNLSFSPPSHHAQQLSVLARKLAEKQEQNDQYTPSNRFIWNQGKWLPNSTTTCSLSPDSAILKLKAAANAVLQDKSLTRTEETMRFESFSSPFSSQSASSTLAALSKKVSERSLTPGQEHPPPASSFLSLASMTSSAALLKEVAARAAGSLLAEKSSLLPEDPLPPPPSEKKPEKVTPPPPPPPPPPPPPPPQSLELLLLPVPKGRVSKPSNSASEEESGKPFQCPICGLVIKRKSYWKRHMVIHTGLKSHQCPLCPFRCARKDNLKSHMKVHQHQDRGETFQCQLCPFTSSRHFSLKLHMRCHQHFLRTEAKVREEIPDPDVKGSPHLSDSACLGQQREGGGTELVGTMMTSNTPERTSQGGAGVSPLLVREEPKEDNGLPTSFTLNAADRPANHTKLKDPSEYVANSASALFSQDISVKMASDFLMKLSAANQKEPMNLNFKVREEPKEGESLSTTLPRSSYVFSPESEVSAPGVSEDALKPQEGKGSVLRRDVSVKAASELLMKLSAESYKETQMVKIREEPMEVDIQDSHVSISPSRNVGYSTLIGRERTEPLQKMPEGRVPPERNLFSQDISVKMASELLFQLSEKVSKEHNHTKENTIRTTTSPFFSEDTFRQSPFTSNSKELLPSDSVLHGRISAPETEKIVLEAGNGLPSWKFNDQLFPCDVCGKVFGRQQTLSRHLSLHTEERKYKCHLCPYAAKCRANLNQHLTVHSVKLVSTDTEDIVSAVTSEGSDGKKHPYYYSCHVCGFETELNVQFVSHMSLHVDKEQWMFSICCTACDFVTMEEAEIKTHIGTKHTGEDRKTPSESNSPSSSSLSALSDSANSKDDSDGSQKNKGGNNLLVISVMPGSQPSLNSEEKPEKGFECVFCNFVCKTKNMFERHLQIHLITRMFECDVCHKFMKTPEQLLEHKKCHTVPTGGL
Protocol: (§1) Purified proteins were quantified using a BCA assay using the Pierce™ BCA Protein Assay Kit according to the manufacturer's instructions. Equal amounts of purified proteins were incubated in binding buffer (20 mM HEPES-KOH, pH7.9, 100 mM KCl, 0.8 mM ZnCl₂, 0.2 mM EDTA, 5% glycerol, 0.5 mM DTT and 0.5 mM PMSF) with 6.25 μg/mL poly (dI:dC) and 50 ng/μL BSA on ice for 20 minutes. ˜0.12 nM (˜2.5 fmol) γ-³²P labelled DNA oligonucleotide (see Table 3) probes were added to samples and incubated on ice for another 30 minutes. Binding reactions were loaded onto an 8% native acrylamide/bisacrylamide (19:1, Biorad) gel pre-run at 100V in 0.5× TB buffer (89 mM Tris, 89 mM boric acid) for 20 minutes. Gels were electrophoresed at 150 V for 150 minutes at 4° C., dried at 65° C. for 45 minutes, and then exposed to a Phosphor screen overnight. Gel images were obtained by scanning the screens with a Typhoon FLA9500 Imager (GE Life Sciences).
To identify which zinc fingers are required for DNA binding activity, zinc finger mutants with either one or both zinc finger clusters deleted were also generated and purified (FIG. 1). Purified proteins were validated by HaloTag® TMR ligand detection and western blot analysis. Mass spectrometry (MS) analysis also confirmed the specificity of the HaloTag protein purification method. […]

ZNF827 ZnF4-9 deleted = target: T2, ZNF827 ZnF4-9 deleted (Homo sapiens); assay: EMSA; 0.8 mM ZnCl2, 100 mM KCl, poly(dI:dC), on ice; conditions: tags: HaloTag (pHTN), expressed in HEK 293T, tag removed by HaloTEV cleavage; label: 32P (gamma)
T2 chain: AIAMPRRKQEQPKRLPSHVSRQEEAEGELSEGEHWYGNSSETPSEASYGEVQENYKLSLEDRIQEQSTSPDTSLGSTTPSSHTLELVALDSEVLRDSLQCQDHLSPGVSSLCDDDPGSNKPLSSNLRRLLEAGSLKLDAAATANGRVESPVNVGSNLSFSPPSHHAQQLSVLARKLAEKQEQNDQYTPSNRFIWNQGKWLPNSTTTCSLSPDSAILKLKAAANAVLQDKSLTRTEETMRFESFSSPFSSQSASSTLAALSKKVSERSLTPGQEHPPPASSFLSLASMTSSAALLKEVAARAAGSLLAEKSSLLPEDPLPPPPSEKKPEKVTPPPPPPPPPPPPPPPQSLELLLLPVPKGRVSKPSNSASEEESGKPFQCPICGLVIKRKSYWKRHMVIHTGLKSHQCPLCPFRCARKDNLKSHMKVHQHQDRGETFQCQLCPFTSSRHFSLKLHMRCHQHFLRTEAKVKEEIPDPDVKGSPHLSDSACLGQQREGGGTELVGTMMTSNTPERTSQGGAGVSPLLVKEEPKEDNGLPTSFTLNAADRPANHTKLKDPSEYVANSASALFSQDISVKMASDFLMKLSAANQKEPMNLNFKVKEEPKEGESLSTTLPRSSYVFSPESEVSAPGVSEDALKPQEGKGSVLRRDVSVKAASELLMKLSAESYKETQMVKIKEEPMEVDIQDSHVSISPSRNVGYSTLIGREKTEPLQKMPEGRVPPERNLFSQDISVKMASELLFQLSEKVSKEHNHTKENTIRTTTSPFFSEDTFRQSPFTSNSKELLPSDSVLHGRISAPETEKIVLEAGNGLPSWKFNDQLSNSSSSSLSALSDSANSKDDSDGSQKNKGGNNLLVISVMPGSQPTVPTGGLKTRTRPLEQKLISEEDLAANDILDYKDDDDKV
Protocol: as §1

TTAGGGTTAGGGTTAGGG (ssDNA) [ss telomeric G rich oligo]
binding result [1]: binds
binding result (ZNF827 ZnF4-9 deleted): binds
